The values that follow come from US6780603.

In this test the target is α2β1 integrin receptor of human mesangial cells (human) (UniProt P05556). Kind of test: cell-based or functional assay.

On to “P1H5 anti-α2 integrin monoclonal antibody”, for which the inhibition of adhesion of human mesangial cells grown in 5 mM glucose to cIV (percent of binding in the presence of W6/32) turned out to be 60% and the inhibition of adhesion of human mesangial cells grown in 25 mM glucose to cIV (percent of binding in the presence of W6/32) is 75%.
